Results published in patent publication US20210340270A1 (Amgen, published 2021).

How the values were obtained:
[1] = molecular target: T1, recombinant human Jagged1 extracellular domain (Met 1-Ser 1046), fused with a polyhistidine tag at the … (human, UniProt P78504 34-1046); test: Octet Red96 BLI; mAb captured on AHC anti-HuFc biosensors, soluble hJagged1 as analyte; mean of 3 experiments (same KD as r8c2, in nM)
T1 construct: Bought protein; also called hJagged1; soluble recombinant hJagged1; not shown: C-terminal polyhistidine tag
Description: (§1) The affinity of the soluble recombinant hJagged1 was determined in Octet platform (Octet Red96) under the manufactures recommended kinetic measurement settings. Briefly, hJagged1 was diluted 1 to 3 from 150 nM to 0.5 nM in Octet buffer (10 mM Tris base, 150 mM NaCl, 1 mM CaCl2, 0.1 mg/ml BSA, 0.1% Triton X100) and 60 ul of this serial diluted samples were taken in 384 well tilted bottom (TW384) black polypropylene microplate (Forte Bio, Cat #18-0019) (sample plate). 3 ug/ml of anti-hJagged1 mAb 15D11.1 present in 60 ul in sample plate was used and captured on AHC—anti-HuFc (Kinetic) biosensors (cat #18-5060). A sample with buffer alone is used as a control.

[2] = molecular target: T2, Recombinant Mouse DLL1 His tag (Sino Biological Cat #: 50522-M08H-50) (mouse, UniProt Q61483 18-540); test: ELISA, 1 ug/ml ligand coated on the plate, 15D11.1 titrated, absorbance 450 nm
T2 construct: Bought construct; also called murine Delta-like 1; not shown: His tag
Description: (§2) 15D11.1 was tested for binding to recombinant purified Notch ligands; human Jagged1 Fc (Recombinant Human Jagged 1 Fc chimera—R&D Systems Cat #: 1277-M-050), human Jagged1 His (Human JAG1/Jagged1 His Tag Sino Biological Cat #: 11648-H08H), rat Jagged1 Fc (Recombinant Rat Jagged 1 Fc chimera—R&D Systems—Cat #: 599-JG-050), human Jagged2 (Recombinant Human Jagged 2 Fc chimera—R&D Systems Cat #: 1726-JG-050), murine Jagged2 (Recombinant Mouse Jagged 2 Fc chimera—R&D Systems Cat #: 4748-JG-050), murine Delta-like 1 (Recombinant Mouse DLL1 His tag—Sino Biological Cat #: 50522-M08H-50), human Deltalike 4 (Recombinant Human DLL4 His tag—R&D Systems—Cat #: 1506-D4-050) and murine Deltalike 4 (Recombinant Mouse DLL4 His tag—R&D Systems—Cat #: 1389-D4-050) using a standard enzyme-linked immunosorbent assay (ELISA). 1 ug/ml of Notch ligand protein (as indicated) in PBS, pH7.4, was coated onto ELISA plates (Nunc Maxisorp) at 4° C. overnight. Plates were blocked with Casein blocker in PBS (Pierce) for one hour at room temperature. Serial 2-fold dilutions of 15D11.1
(§3) in PBST buffer (PBT buffer (PBS+0.05% (v/v) Tween 20) with 0.5% (w/v) BSA) were added to the plates and incubated for one hour at room temperature. The plates were then washed with PBST and bound antibodies were detected with peroxidase-conjugated goat anti-human Fab specific IgG (Sigma). TMB substrate (3,3′,5,5′-tetramethylbenzidine) was used and absorbance at 450 nm was read using a standard ELISA plate reader. Absorbance was plotted against concentrations of 15D11.1 in FIGS. 8A and 8B.

[3] = molecular target: T3, Recombinant Mouse Jagged 2 Fc chimera (R&D Systems Cat #: 4748-JG-050) (mouse, UniProt Q9QYE5 27-1082); test: as above
T3 construct: Bought construct; also called murine Jagged2; not shown: Fc part and any linker of the bought chimera not described
Description: as §2, §3

[4] = molecular target: T4, Recombinant Mouse DLL4 His tag (R&D Systems Cat #: 1389-D4-050) (mouse, UniProt Q9JI71 28-525); test: as above
T4 construct: Bought construct; also called murine Deltalike 4; not shown: His tag
Description: as §2, §3

[5] = molecular target: T5, Recombinant Human Jagged 2 Fc chimera (R&D Systems Cat #: 1726-JG-050) (human, UniProt Q9Y219 27-1080); test: as above
T5 construct: Bought construct; not shown: Fc part and any linker of the bought chimera not described
Description: as §2, §3

[6] = molecular target: T6, Recombinant Human DLL4 His tag (R&D Systems Cat #: 1506-D4-050) (human, UniProt Q9NR61 27-524); test: as above
T6 construct: Bought construct; also called human Deltalike 4; not shown: His tag
Description: as §2, §3

[7] = molecular target: murine Jagged-1 stably expressed on 293T cells (mouse, UniProt Q9QXX0 34-1218); test: cell-based or functional assay
[8] = molecular target: human Jagged-1 expressed on transfected 293 / 293T cells (human, UniProt P78504 34-1218); test: cell-based or functional assay
[9] = molecular target: human and rat Jagged-1 (recombinant purified Notch ligands in the ELISA); test: direct binding ELISA on recombinant purified Notch ligands
[10] = molecular target: T7, Recombinant Human Jagged 1 Fc chimera (R&D Systems Cat #: 1277-M-050) (human, UniProt P78504 32-1046); test: ELISA, 1 ug/ml ligand coated on the plate, 15D11.1 titrated, absorbance 450 nm; single experiment shown (the text prints only a mean of n = 3)
T7 construct: also called hJAG1 Fc; not shown: Fc part and any linker of the bought chimera not described
Description: as §2, with “1 ug/ml of Notch ligand protein (as indicated) in PBS, pH7.4, was coated onto ELISA plates (Nunc Maxisorp) at 4° C. overnight. Plates were blocked with Casein blocker in PBS (Pierce) for one hour at room temperature. Serial 2-fold dilutions of 15D11.1” left out
as §3

[11] = molecular target: T1, recombinant human Jagged1 extracellular …; test: Octet Red96 BLI; mAb captured on AHC anti-HuFc biosensors, soluble hJagged1 as analyte; mean of 3 experiments
Description: as §1

[12] = molecular target: T8, Human JAG1/Jagged1 His Tag (Sino Biological Cat #: 11648-H08H) (human, UniProt P78504 34-1046); test: direct binding ELISA; 1 ug/ml ligand coated, antibody titrated, anti-human Fab-HRP detection (printed as IC50)
T8 construct: also called human Jagged1 His; hJAG1 His; not shown: His tag
Description: as §2, §3

[13] = molecular target: T9, Recombinant Rat Jagged 1 Fc chimera (R&D Systems Cat #: 599-JG-050) (rat, UniProt Q63722 32-1046); test: as above
T9 construct: Bought construct; also called rJAG1; not shown: Fc part and any linker of the bought chimera not described
Description: as §2, §3

[14] = molecular target: T7, Recombinant Human Jagged 1 Fc chimera …; test: as above
Description: as §2, §3

Chain of murine Jagged-1 stably expressed on 293T cells (Q9QXX0 34-1218): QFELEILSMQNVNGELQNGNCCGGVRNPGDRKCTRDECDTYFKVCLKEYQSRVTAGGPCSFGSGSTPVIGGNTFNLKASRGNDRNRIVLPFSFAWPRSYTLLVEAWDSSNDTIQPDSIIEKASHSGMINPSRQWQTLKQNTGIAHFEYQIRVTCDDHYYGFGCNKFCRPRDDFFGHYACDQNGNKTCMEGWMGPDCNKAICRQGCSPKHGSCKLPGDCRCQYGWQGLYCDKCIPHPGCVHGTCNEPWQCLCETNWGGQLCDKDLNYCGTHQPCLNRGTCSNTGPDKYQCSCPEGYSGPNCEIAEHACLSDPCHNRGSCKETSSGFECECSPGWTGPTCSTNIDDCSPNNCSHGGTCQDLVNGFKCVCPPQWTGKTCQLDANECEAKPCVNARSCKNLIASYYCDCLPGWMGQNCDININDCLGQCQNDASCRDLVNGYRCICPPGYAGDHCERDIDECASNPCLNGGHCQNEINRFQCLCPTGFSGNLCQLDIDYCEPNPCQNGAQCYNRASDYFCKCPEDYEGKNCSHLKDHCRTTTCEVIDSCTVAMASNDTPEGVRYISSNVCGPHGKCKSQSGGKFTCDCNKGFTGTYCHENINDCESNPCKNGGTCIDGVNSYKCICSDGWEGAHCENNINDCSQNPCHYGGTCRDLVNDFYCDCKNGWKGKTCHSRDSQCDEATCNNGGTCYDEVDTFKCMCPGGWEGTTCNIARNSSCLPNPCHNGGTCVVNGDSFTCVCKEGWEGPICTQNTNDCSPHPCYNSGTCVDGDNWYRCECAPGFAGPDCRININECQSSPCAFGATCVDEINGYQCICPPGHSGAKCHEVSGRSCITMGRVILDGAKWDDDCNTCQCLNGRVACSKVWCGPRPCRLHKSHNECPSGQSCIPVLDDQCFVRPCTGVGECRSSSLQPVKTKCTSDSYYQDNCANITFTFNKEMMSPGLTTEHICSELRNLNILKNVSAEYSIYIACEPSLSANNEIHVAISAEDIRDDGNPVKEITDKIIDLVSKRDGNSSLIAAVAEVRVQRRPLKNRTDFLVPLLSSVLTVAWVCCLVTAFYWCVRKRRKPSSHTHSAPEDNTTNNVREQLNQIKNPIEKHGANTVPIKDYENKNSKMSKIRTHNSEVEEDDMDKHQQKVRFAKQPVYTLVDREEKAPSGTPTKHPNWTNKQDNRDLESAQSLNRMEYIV
Chain of human Jagged-1 expressed on transfected 293 / 293T cells (P78504 34-1218 P227R/N498D limits assumed): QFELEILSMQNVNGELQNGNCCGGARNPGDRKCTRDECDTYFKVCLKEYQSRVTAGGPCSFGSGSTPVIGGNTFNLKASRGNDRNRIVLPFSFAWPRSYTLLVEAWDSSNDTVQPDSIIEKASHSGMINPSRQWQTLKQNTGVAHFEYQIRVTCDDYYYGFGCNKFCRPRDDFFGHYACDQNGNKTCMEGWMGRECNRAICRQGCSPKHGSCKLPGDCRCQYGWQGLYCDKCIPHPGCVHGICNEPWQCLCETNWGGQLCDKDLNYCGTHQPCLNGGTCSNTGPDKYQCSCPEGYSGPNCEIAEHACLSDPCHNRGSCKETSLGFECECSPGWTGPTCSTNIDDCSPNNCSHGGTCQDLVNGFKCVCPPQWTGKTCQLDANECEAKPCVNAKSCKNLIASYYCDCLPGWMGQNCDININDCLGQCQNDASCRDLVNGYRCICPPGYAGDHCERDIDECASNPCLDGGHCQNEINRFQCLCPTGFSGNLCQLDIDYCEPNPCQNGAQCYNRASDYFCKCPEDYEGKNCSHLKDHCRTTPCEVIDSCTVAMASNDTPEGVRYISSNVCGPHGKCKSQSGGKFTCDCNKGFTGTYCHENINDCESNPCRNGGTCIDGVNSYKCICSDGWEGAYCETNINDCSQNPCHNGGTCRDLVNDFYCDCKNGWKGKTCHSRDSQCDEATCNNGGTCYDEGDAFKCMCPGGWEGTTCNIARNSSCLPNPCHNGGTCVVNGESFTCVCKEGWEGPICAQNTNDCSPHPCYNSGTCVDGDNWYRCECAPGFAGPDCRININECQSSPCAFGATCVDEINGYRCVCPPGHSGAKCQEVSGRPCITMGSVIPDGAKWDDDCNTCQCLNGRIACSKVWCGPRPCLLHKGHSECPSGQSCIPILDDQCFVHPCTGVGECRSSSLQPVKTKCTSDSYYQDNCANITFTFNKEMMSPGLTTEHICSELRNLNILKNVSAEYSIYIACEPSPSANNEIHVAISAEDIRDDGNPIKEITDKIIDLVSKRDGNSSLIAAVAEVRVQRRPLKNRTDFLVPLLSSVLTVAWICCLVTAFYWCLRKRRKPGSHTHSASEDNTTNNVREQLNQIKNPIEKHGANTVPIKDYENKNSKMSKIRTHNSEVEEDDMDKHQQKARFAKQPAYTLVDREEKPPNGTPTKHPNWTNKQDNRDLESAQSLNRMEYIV
T5 sequence (Q9Y219 27-1080, change not shown): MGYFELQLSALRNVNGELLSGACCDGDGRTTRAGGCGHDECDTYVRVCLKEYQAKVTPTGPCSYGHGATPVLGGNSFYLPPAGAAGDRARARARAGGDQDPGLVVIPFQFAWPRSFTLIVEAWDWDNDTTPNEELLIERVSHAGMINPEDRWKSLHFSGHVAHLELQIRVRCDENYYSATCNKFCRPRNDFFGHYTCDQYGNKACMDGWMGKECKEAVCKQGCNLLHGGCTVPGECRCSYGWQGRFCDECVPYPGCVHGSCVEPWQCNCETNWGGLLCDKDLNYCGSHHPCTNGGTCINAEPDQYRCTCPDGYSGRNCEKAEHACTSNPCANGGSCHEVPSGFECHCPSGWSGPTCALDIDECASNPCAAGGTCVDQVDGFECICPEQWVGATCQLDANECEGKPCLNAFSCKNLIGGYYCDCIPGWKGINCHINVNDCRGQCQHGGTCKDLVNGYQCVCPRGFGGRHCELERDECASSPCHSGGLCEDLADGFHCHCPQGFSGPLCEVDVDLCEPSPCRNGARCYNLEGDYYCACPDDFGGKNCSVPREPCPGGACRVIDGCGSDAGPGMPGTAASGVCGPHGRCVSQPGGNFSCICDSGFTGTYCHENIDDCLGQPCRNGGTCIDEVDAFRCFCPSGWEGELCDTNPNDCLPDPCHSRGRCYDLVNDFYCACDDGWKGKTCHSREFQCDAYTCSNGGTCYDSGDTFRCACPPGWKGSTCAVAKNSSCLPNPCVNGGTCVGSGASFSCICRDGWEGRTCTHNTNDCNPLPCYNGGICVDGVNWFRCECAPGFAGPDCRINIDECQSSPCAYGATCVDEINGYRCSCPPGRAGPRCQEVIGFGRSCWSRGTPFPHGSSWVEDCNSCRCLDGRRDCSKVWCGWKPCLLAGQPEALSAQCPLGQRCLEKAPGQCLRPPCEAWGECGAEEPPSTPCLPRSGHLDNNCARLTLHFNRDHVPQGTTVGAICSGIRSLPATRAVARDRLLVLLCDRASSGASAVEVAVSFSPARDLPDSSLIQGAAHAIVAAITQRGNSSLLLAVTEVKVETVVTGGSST
T2 sequence (Q61483 18-540 limits assumed, stated change not applied): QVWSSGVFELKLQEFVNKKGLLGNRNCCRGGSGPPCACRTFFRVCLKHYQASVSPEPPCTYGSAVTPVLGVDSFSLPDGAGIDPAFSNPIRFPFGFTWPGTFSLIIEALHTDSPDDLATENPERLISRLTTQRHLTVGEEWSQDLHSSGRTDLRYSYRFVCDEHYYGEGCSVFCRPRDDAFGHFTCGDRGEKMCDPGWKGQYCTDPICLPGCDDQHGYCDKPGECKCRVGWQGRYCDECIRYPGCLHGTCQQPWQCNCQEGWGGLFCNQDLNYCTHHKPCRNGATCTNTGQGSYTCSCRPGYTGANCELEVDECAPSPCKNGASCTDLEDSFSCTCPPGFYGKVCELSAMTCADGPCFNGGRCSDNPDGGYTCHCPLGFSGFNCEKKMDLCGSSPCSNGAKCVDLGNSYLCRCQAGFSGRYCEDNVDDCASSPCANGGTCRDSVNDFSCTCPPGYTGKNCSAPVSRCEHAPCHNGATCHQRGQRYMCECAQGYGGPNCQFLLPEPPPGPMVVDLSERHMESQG
T4 sequence (Q9JI71 28-525 limits assumed): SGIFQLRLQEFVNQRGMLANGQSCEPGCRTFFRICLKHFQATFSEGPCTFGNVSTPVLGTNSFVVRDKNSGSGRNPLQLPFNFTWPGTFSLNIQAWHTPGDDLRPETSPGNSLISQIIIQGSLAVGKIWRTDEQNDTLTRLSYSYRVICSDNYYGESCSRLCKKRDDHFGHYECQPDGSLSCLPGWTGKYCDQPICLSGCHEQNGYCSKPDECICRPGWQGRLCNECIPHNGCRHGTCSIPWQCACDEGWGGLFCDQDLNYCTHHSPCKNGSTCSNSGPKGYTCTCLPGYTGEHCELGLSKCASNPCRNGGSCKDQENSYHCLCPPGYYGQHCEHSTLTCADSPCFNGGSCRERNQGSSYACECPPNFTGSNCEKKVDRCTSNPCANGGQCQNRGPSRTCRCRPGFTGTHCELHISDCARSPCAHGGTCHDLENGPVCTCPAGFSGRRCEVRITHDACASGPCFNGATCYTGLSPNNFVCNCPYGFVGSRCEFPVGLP
T6 sequence (Q9NR61 27-524 limits assumed): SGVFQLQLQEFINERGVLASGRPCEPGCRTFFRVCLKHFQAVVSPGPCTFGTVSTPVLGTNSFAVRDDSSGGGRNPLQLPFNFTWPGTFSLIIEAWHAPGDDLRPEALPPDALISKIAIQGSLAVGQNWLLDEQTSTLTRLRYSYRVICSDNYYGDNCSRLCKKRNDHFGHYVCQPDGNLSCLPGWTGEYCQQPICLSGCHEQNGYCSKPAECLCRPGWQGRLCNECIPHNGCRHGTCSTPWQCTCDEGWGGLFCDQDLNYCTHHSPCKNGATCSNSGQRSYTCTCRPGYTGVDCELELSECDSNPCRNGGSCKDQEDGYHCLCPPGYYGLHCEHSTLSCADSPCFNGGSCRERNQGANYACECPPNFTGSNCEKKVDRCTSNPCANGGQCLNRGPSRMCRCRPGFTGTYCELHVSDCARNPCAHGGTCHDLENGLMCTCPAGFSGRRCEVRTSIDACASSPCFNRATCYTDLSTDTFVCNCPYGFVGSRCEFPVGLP

B1: anti-hJagged1 mAb 15D11.1 (antibody, V domains shown)
VH: QVTLKESGPVLVKPTETLTLTCTVSGFSLSNAEMGVSWIRQPPGKALEWLAHLFSNDEKSYSTSLKSRLTISKDTSKSQVVLTMTDLDPVDTATYYCARSFNWNYDFDYWGQGTLVTVSS
VL: QSALTQPASVSGSPGQSITISCTGTSSAVGGHNFVSWYQQYPGKAPKLMIYEVSNRPSGVSTRFSGSKSGNTASLTISGLQAEDEADYYCSSYTSSSTWVFGGGTRLTVL
notes: Fully human monoclonal antibody from XenoMouse (XMG2-KL / XMG4-KL) hybridomas; also called iPS:480499; anti-Jag-1 15D11.1
- Kd [1]: 0.61 nM
- binding result [2]: no binding (tested: about log 1.8 nM (about 60 nM))
- binding result [3]: no binding (tested: about log 1.8 nM (about 60 nM))
- binding result [4]: no binding (tested: about log 1.8 nM (about 60 nM))
- binding result [5]: no binding (tested: about log 1.8 nM (about 60 nM))
- binding result [6]: no binding (tested: about log 1.8 nM (about 60 nM))
- IC50, murine Jagged-1 induced murine Notch1 activation co-culture assay (7xCSL firefly luciferase reporter in 293T/murine Notch1 cells) [7]: 7.72 nM
- avg IC50, murine Jagged-1 induced murine Notch1 activation co-culture assay (7xCSL firefly luciferase reporter in 293T/murine Notch1 cells) [7]: 9 nM
- IC50, human Jagged-1 induced human Notch2 activation co-culture assay (12xCSL firefly luciferase reporter in SK-MEL-28 cells) [8]: 1.69 nM
- avg IC50, human Jagged-1 induced human Notch2 activation co-culture assay (12xCSL firefly luciferase reporter in SK-MEL-28 cells) [8]: 2.31 nM
- IC50 [9]: 0.3 to 0.9 nM
- EC50 (read off the curve) [10]: ~0.4 nM
- koff [11]: 0.000189 s⁻¹
- kon [11]: 331000 M⁻¹ s⁻¹
- IC50 [12]: 0.39 nM
- IC50 [13]: 0.51 nM
- IC50 [14]: 0.8 nM
